From article PMC10881500, “Structure-guided engineering of immunotherapies targeting TRBC1 and TRBC2 in T cell malignancies” (Nature Communications, 2024)
Like-named read-outs stand apart in the source and are kept apart here.

Columns and labels:
[1] = target: T1, TCR with the TRBC1 β-chain constant domain, on cells (Homo sapiens, UniProt P01848;P01850)
Target sequence in this assay (P01848 whole entry, chain 1 of 2, the tested form may be a part): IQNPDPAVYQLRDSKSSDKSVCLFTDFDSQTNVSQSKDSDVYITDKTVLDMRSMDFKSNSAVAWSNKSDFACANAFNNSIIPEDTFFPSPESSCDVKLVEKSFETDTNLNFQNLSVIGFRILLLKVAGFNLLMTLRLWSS
Target sequence in this assay (P01850 whole entry, chain 2 of 2, the tested form may be a part): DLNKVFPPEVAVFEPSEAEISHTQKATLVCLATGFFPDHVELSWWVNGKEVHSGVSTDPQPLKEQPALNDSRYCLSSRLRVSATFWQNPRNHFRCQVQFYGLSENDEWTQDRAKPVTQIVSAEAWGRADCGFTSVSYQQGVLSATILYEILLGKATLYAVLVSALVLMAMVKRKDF

[2] = target: T2, Recombinant, purified TRBC1 (soluble αβ TCR with the β-chain constant domain TRBC1), SPR analyte (Homo sapiens, HA1.7 TCR with TRBC1)
Target sequence in this assay (main, as listed by the source, chain 1 of 2): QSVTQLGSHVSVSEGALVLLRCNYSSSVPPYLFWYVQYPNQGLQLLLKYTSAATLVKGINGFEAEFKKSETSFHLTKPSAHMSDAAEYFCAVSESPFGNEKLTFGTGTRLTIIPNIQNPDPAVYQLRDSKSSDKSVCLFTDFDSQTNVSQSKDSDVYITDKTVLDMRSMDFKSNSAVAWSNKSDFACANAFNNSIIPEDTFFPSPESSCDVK
Target sequence in this assay (partner, as listed by the source, chain 2 of 2): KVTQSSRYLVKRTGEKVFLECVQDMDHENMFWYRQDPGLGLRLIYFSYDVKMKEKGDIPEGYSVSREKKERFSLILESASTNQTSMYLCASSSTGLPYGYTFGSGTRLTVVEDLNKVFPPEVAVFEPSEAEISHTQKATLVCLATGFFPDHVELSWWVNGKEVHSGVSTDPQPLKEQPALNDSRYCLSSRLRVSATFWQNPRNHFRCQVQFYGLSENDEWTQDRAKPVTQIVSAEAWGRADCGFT

[3] = target: T3, Recombinant, purified TRBC2 (soluble αβ TCR with the β-chain constant domain TRBC2), SPR analyte (Homo sapiens, HA1.7 TCR with TRBC2); assay: SPR; Biacore T200; scFv-Fc captured on a Series S Protein A chip to 50 RU; TRBC1 or TRBC2 as analyte, 150 s contact, 500 s dissociation, 30 μl/min, 25 °C, HBS-P+ pH 7.4; 1:1 Langmuir model; conditions: both partners purified
T3 construct: also called recombinant TRBC2; source: recombinant, purified

[4] = target: T2, Recombinant, purified TRBC1 (soluble αβ …); assay: SPR; Biacore T200; antibody as human IgG1 captured with an anti-human capture kit on CM5 to 200 RU; TRBC1 or TRBC2 as analyte, 150 s contact, 300 s dissociation, 30 μl/min, 25 °C, HBS-P+ pH 7.4; 1:1 Langmuir model; conditions: both partners purified
[5] = target: T3, Recombinant, purified TRBC2 (soluble αβ …); assay: as above; conditions: both partners purified
[6] = target: T1, TCR with the TRBC1 β-chain constant …; assay: flow cytometry on cells; HPB-ALL TRBC1, HPB-ALL TRBC2 or HPB-ALL TCR KO cells; titration of IgG from 10 μg/ml in 2-fold dilutions, 30 min RT; anti-human IgG Alexa Fluor 647; conditions: one partner purified
Target sequence in this assay (P01850 whole entry, looked up, chain 1 of 2, the tested form may be a part): as the sequence (P01850 whole entry, chain 2 of 2, the tested form may be a part) above
Target sequence in this assay (P01848 whole entry, looked up, chain 2 of 2, the tested form may be a part): as the sequence (P01848 whole entry, chain 1 of 2, the tested form may be a part) above

[7] = target: TCR with the TRBC2 β-chain constant domain, on cells (Homo sapiens, UniProt P01848;A0A5B9); assay: flow cytometry on cells; staining of TCR+ cell lines with HuJovi-1 or KFN; conditions: one partner purified
Chain of TCR with the TRBC2 β-chain constant domain, on cells (A0A5B9 whole entry, looked up, chain 1 of 2, the tested form may be a part): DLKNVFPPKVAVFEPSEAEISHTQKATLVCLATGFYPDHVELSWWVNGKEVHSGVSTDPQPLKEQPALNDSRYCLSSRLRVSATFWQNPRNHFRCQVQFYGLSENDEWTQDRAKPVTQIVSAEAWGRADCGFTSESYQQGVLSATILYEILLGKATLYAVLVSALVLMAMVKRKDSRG
Chain of TCR with the TRBC2 β-chain constant domain, on cells (P01848 whole entry, looked up, chain 2 of 2, the tested form may be a part): as the sequence (P01848 whole entry, chain 1 of 2, the tested form may be a part) above

[8] = target: T3, Recombinant, purified TRBC2 (soluble αβ …); assay: not stated; bi-paratopic (avid) engagement allowed; Supplementary Fig. 12
[9] = target: T2, Recombinant, purified TRBC1 (soluble αβ …); assay: SPR; Biacore T200; scFv-Fc captured on a Series S Protein A chip to 50 RU; TRBC1 or TRBC2 as analyte, 150 s contact, 500 s dissociation, 30 μl/min, 25 °C, HBS-P+ pH 7.4; 1:1 Langmuir model; conditions: both partners purified

Row | Binder | Kd [4] [nM] | koff [4] [s⁻¹] | Kd [5] [nM] | koff [5] [s⁻¹] | further results
1 | MuJovi-1 (antibody, V domains shown) VH: EVRLQQSGPDLIKPGASVKMSCKASGYTFTGYVMHWVKQRPGQGLEWIGFINPYNDDIQSNERFRGKATLTSDKSSTTAYMELSSLTSEDSAVYYCARGAGYNFDGAYRFFDFWGQGTTLTVSS VL: DVVMTQSPLSLPVSLGDQASISCRSSQRLVHSNGNTYLHWYLQKPGQSPKLLIYRVSNRFPGVPDRFSGSGSGTDFTLKISRVEAEDLGIYFCSQSTHVPYTFGGGTKLEIK | – | – | – | – | binding result [1]: binds; Kd [2]: 1.6 nM
2 | KFN scFv-Fc (scFv, V domains shown, scFv of KFN: VH and VL as in m6 (PDB 7AMS, 7AMR), that is the VH of m1 with the stated changes (Kabat numbering); scFv-Fc with a murine IgG2a Fc; captured on a Protein A chip; source: ExpiCHO, transient transfection, purified (MabSelect SuRe)) VH: QVQLVQSGAEVKKPGASVKVSCKASGYKFTGFVMHWVRQAPGQGLEWMGFINPYNDDIQSNERFRGRVTMTRDTSISTAYMELSRLRSDDTAVYYCARGNGYNFDGAYRFFDFWGQGTMVTVSS VL: DIVMTQSPLSLPVTPGEPASISCRSSQRLVHSNGNTYLHWYLQKPGQSPRLLIYRVSNRFPGVPDRFSGSGSGTDFTLKISRVEAEDVGVYYCSQSTHVPYTFGQGTKLEIK | – | – | – | – | Kd [3]: 1170 nM; koff [3]: 0.0995 s⁻¹
3 | Mut1 (HuJovi-1 VH T28K), human IgG1 (antibody, V domains shown, as the VH of m1 with the stated change; positions in Kabat numbering; constant region of the human IgG1 heavy chain; as the light chain of m1; IgG1; also called Lys28 mutant; Thr28Lys; source: ExpiCHO, transient transfection, purified (MabSelect SuRe)) VH: QVQLVQSGAEVKKPGASVKVSCKASGYKFTGYVMHWVRQAPGQGLEWMGFINPYNDDIQSNERFRGRVTMTRDTSISTAYMELSRLRSDDTAVYYCARGAGYNFDGAYRFFDFWGQGTMVTVSS VL: DIVMTQSPLSLPVTPGEPASISCRSSQRLVHSNGNTYLHWYLQKPGQSPRLLIYRVSNRFPGVPDRFSGSGSGTDFTLKISRVEAEDVGVYYCSQSTHVPYTFGQGTKLEIK | 6.69 | 0.001 | 7480 | 0.585 | –
4 | Mut7 (HuJovi-1 VH T28K, A96N), human IgG1 (antibody, V domains shown, as the VH of m1 with the stated changes; positions in Kabat numbering; constant region of the human IgG1 heavy chain; as the light chain of m1; IgG1; source: ExpiCHO, transient transfection, purified (MabSelect SuRe)) VH: QVQLVQSGAEVKKPGASVKVSCKASGYKFTGYVMHWVRQAPGQGLEWMGFINPYNDDIQSNERFRGRVTMTRDTSISTAYMELSRLRSDDTAVYYCARGNGYNFDGAYRFFDFWGQGTMVTVSS VL: DIVMTQSPLSLPVTPGEPASISCRSSQRLVHSNGNTYLHWYLQKPGQSPRLLIYRVSNRFPGVPDRFSGSGSGTDFTLKISRVEAEDVGVYYCSQSTHVPYTFGQGTKLEIK | 36.5 | 0.00524 | 395 | 0.166 | –
5 | RFN (Mut4; HuJovi-1 VH T28R, Y32F, A96N), human IgG1 (antibody, V domains shown, as the VH of m1 with the stated changes; positions in Kabat numbering; constant region of the human IgG1 heavy chain; as the light chain of m1; IgG1 in the SPR; also called Arg28/Phe32/Asn96; source: ExpiCHO, transient transfection, purified (MabSelect SuRe)) VH: QVQLVQSGAEVKKPGASVKVSCKASGYRFTGFVMHWVRQAPGQGLEWMGFINPYNDDIQSNERFRGRVTMTRDTSISTAYMELSRLRSDDTAVYYCARGNGYNFDGAYRFFDFWGQGTMVTVSS VL: DIVMTQSPLSLPVTPGEPASISCRSSQRLVHSNGNTYLHWYLQKPGQSPRLLIYRVSNRFPGVPDRFSGSGSGTDFTLKISRVEAEDVGVYYCSQSTHVPYTFGQGTKLEIK | 1440 | 0.125 | 582 | 0.045 | –
6 | Mut2 (HuJovi-1 VH T28K, Y32F), human IgG1 (antibody, V domains shown, as the VH of m1 with the stated changes; positions in Kabat numbering; constant region of the human IgG1 heavy chain; as the light chain of m1; IgG1; also called Lys28/Phe32; Thr28Lys, Tyr32Phe double mutant; source: ExpiCHO, transient transfection, purified (MabSelect SuRe)) VH: QVQLVQSGAEVKKPGASVKVSCKASGYKFTGFVMHWVRQAPGQGLEWMGFINPYNDDIQSNERFRGRVTMTRDTSISTAYMELSRLRSDDTAVYYCARGAGYNFDGAYRFFDFWGQGTMVTVSS VL: DIVMTQSPLSLPVTPGEPASISCRSSQRLVHSNGNTYLHWYLQKPGQSPRLLIYRVSNRFPGVPDRFSGSGSGTDFTLKISRVEAEDVGVYYCSQSTHVPYTFGQGTKLEIK | 387 | 0.0689 | 999 | 0.125 | –
7 | HuJovi-1 (humanized Jovi-1), human IgG1 (antibody, V domains shown, VH of HuJovi-1 (CDRs of Jovi-1 grafted on IGHV1-2*02); constant region of the human IgG1 heavy chain; whole light chain (CDRs of Jovi-1 grafted on IGKV2-29*02, kappa constant from the AbVec kappa vector); IgG1; The section on CDR grafting names HEK293T as host, the section on antibody expression ExpiCHO; also called aTRBC1; source: ExpiCHO, transient transfection, purified (MabSelect SuRe)) VH: QVQLVQSGAEVKKPGASVKVSCKASGYTFTGYVMHWVRQAPGQGLEWMGFINPYNDDIQSNERFRGRVTMTRDTSISTAYMELSRLRSDDTAVYYCARGAGYNFDGAYRFFDFWGQGTMVTVSS VL: DIVMTQSPLSLPVTPGEPASISCRSSQRLVHSNGNTYLHWYLQKPGQSPRLLIYRVSNRFPGVPDRFSGSGSGTDFTLKISRVEAEDVGVYYCSQSTHVPYTFGQGTKLEIK | 2.57 | 0.000618 | – | – | binding result [6]: binds
8 | Mut6 (HuJovi-1 VH A96N), human IgG1 (antibody, V domains shown, as the VH of m1 with the stated change; positions in Kabat numbering; constant region of the human IgG1 heavy chain; as the light chain of m1; IgG1; source: ExpiCHO, transient transfection, purified (MabSelect SuRe)) VH: QVQLVQSGAEVKKPGASVKVSCKASGYTFTGYVMHWVRQAPGQGLEWMGFINPYNDDIQSNERFRGRVTMTRDTSISTAYMELSRLRSDDTAVYYCARGNGYNFDGAYRFFDFWGQGTMVTVSS VL: DIVMTQSPLSLPVTPGEPASISCRSSQRLVHSNGNTYLHWYLQKPGQSPRLLIYRVSNRFPGVPDRFSGSGSGTDFTLKISRVEAEDVGVYYCSQSTHVPYTFGQGTKLEIK | 13.8 | 0.00197 | 379 | 0.00194 | –
9 | Mut5 (HuJovi-1 VH Y32F), human IgG1 (antibody, V domains shown, as the VH of m1 with the stated change; positions in Kabat numbering; constant region of the human IgG1 heavy chain; as the light chain of m1; IgG1; source: ExpiCHO, transient transfection, purified (MabSelect SuRe)) VH: QVQLVQSGAEVKKPGASVKVSCKASGYTFTGFVMHWVRQAPGQGLEWMGFINPYNDDIQSNERFRGRVTMTRDTSISTAYMELSRLRSDDTAVYYCARGAGYNFDGAYRFFDFWGQGTMVTVSS VL: DIVMTQSPLSLPVTPGEPASISCRSSQRLVHSNGNTYLHWYLQKPGQSPRLLIYRVSNRFPGVPDRFSGSGSGTDFTLKISRVEAEDVGVYYCSQSTHVPYTFGQGTKLEIK | 426 | 0.0457 | – | – | –
10 | KFN (Mut3; HuJovi-1 VH T28K, Y32F, A96N), human IgG1 (antibody, V domains shown, VH of KFN: as the VH of m1 (PDB 7AMP, 7AMQ) with the stated changes, positions in Kabat numbering; constant region of the human IgG1 heavy chain; as the light chain of m1; IgG1; also called Lys28/Phe32/Asn96; aTRBC2; source: ExpiCHO, transient transfection, purified (MabSelect SuRe)) VH: QVQLVQSGAEVKKPGASVKVSCKASGYKFTGFVMHWVRQAPGQGLEWMGFINPYNDDIQSNERFRGRVTMTRDTSISTAYMELSRLRSDDTAVYYCARGNGYNFDGAYRFFDFWGQGTMVTVSS VL: DIVMTQSPLSLPVTPGEPASISCRSSQRLVHSNGNTYLHWYLQKPGQSPRLLIYRVSNRFPGVPDRFSGSGSGTDFTLKISRVEAEDVGVYYCSQSTHVPYTFGQGTKLEIK | – | – | 479 | 0.0386 | binding result [7]: binds; fold affinity differential TRBC1:TRBC2 with bi-paratopic engagement [8]: > 100 fold
11 | HuJovi-1 scFv-Fc (scFv, V domains shown, scFv of HuJovi-1: VH and VL as in m1 (PDB 7AMP, 7AMQ); scFv-Fc with a murine IgG2a Fc; captured on a Protein A chip; source: ExpiCHO, transient transfection, purified (MabSelect SuRe)) VH: QVQLVQSGAEVKKPGASVKVSCKASGYTFTGYVMHWVRQAPGQGLEWMGFINPYNDDIQSNERFRGRVTMTRDTSISTAYMELSRLRSDDTAVYYCARGAGYNFDGAYRFFDFWGQGTMVTVSS VL: DIVMTQSPLSLPVTPGEPASISCRSSQRLVHSNGNTYLHWYLQKPGQSPRLLIYRVSNRFPGVPDRFSGSGSGTDFTLKISRVEAEDVGVYYCSQSTHVPYTFGQGTKLEIK | – | – | – | – | Kd [9]: 7.51 nM; koff [9]: 0.003 s⁻¹
